Measured values as given in a protein production outcome set (Wang et al. 2014).

Experiment: label from the status in PepcDB records
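Also: failed if final PepcDB status was selected cloned or expressed and not failed if soluble or beyond.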

Row | Sequence | protein production
1 | MTSPSHASDRGGGDGDSVENQSPELRKDPVTNRWVIFSPARAKRPTDFKSKSPQNPNPKPSSCPFCIGREQECAPELFRVPDHDPNWKLRVIENLYPALSRNLETQSTQPETGTSRTIVGFGFHDVVIESPVHSIQLSDIDPVGIGDILIAYKKRINQIAQHDSINYIQVFKNQGASAGASMSHSHSQMMALPVVPPTVSSRLDGTKDYFEETGKCCLCEAKSKHFVIDESSHFVSVAPFAATYPFEIWIIPKDHSSHFHHLDDVKAVDLGGLLKLMLQKIAKQLNDPPYNYMIHTSPLKVTESQLPYTHWFLQIVPQLSGVGGFEIGTGCYINPVFPEDVAKVMREVSLT | not failed
2 | MTSRIQMHRTSPPPAYGTSAPPSGFTLGASTTSTLQRWALPLLLVAFGLFYLLPLTSHGLWIPDETRYAQISQEMLLSGDWVAPHFMGIRYFEKPIAGYWLIAIGQAVFGDNLFGVRIASALSTGLSVLLAYLITRRMWNDPRKSFAAALLYMSFGLIAGQAGYSNLDPQFTLWVNLSLVALWFALDGRSTRERLLAWAGLGVACGMGFMTKGFLAWLLPVLIALPYMIWQRRLGELVRYGLVAVLVAIGISLPWVLSIHAHEPDFWRFFFWHEHIRRFAADNAQHTRPWWFYLPLLVASSLPWAALLPGTFMQAWKDKRQAPTGFLLLWFLLPLAFFSLSRGKLPTYIMPCLLPLAVLMGSALIDRINAIQGRSIRINSLLNLLIGVAAMVALLYIQLTRPVYGHNEMLGLSLVFIMLMGWIIANLLPAARPLQYWPAPALGIWLLVALLPAGMPGFIVHNQMPDQFIKEHIEELRQTKTLLSNDLGAASALAWRLQRPEVTLYNTEGELKYGLAYADSAQRKVSMAEVGQWVSEARKQGSVGVVMRVKDVVESEEVALLPPGGKRYEEGNMLVLILPQSQP | failed
3 | MTSRLRALGGRINNIRTSELPKEKTRSEVTCSIRFLDGLVQTFKVNKQDLGQSLLDMAYGHLGVTEKEYFGLQHGDDPVDSPRWLEASKPLRKQLKGGLPCILHFRVRYFIPDPNTLQQEQTRHLYFLQLKMDVCEGRLTCPLNSAVVLASYAVQSHIGDFNSSIHHPGYLADSQFIPDQNDDFLSKVESLHEQHSGLKQSEAESCYINIARTLDFYGVELHGGRDLHNLDLMIGIASAGIAVYRKYICTSFYPWVNILKISFKRKKFFIHQRQKQAESREHIVAFNMLNYRSCKNLWKSCVEHHSFFQAKKLLPQEKNVLSQYWTLGSRNPKKSVNNQYCKKVIGGMVWNPVMRRSLSVERLETKSLPSRSPPITPNWRSPRLRHEIRKPRHSSADNLANEMTYITETEDVFYTYKGSLSPKDSDSEVSQNHSPHRGSLSENNPAQSCLTQKSSSSVSPCSNAPGSFSPDGVDQQFLEDYHKVTKGGSIEEASQYYCDKNDDGDGYLVLIRITPDKEGRFGFNLKGGVDQKMPLVVSRINPESPADTCMPKLNEGDQIVLINGRDISEHTHDQVVMFIKASRESHSRELALVIRRKAVRSLAEIRSEDELSQLFPEAMFPACPEGGDSLEGSMELLKKGLESGTVLIQFEQLYRKKPGLAVTFAKLPQNLDKNRYKDVLPYDTTRVLLQGNEDYINASYVNMEIPAANLVNKYIATQGPLPHTCAQFWQVVWDQKLSLVVMLTTLTERGRTKCHQYWPDPPDIMDHGIFHIQCQAEDCTIAYVSREMLVTNTETGEEHTVTHLQYVAWPDHGVPDDSSDFLEFVKYVRSLRVGGEPALVHCSAGIGRTGVLVTMETAMCLIERNLPVYPLDIVRKMRDQRAMMVQTSSQYKFVCEAILRVYEEGLVQTLDPS | failed
4 | MTSRRLEESMGAVQMGLVNMFKGFQSKVLPPLSPKVVTEEEVNRMLTPSEFLKEMSLTTEQRLAKTRLMCRPQIIELLDMGETTHQKFSGIDLDQALFQPFPSEIIFQNYTPCEVYEVPLILRNNDKIPRLVKVVEESSPYFKVISPKDIGHKVAPGVPSIFRILFTPEENKDYAHTLTCVTEREKFIVPIKARGARAILDFPDKLNFSTCPVKYSTQKILLVRNIGNKNAVFHIKTCRPFSIEPAIGTLNVGESMQLEVEFEPQSVGDHSGRLIVCYDTGEKVFVSLYGAAIDMNIRLDKNSLTIEKTYISMANQRTITIHNRSNIIAHFLWKVFATQQEEDREKYRACDDLIKEEKDETDEFFEECITDPLLREHLSVLSRTFANQRRLVQGDSKLFFNNVFTVEPLEGDVWPNSSAEITVYFNPLEAKLYQQTIYCDILGREIRLPLRIKGEGMGPKIHFNFELLDIGKVFTGSAHCYEAILYNKGSIDALFNMTPPTSALGACFVFSPKEGIIEPSGVQAIQISFSSIILGNFEEEFLVNVNGSPEPVKLTIRGCVIGPTFHFNVPALHFGDVSFGFPHTLICSLNNTSLIPMTYKLRIPGDGLGHKSISYCEQHVDYKRPSWTKEEISSMKPKEFTISPDCGTIRPQGFAAIRVTLCSNTVQKYELALVVDVEGIGEEVLALLITARYCSPACSSPESPPSLQ | not failed
5 | MTSSDLPVMLFAAGFGTRMGDLTRTRPKPLIEVAGRPLVDHTLDLARAVSPPRIVANLHYLAPLLAAHLAPQGVLLSHEQPDILDTGGGLRQALPLLAAETVFTANSDAIWSGPNPFALLAEAWEPARMDALLMCVPVGQAIGHAGHGDFSRDAQGRIERGPGLIYGGVQIVKTGGLGDFDMPAFSLNLLWNRIGAAGRLFALEYPGRWCDVGHPGGIALAEEMLRDVLEHHHHHH | not failed
6 | MTSTTTAPLVGLVMGSDSDWPVMEAAADALAEFGIPFEADVVSAHRMPTEMIRYGQTAHERGLRVIIAGAGGAAHLPGMLASVTPLPVIGVPVPLKTLDGMDSLLSIVQMPAGVPVATVSIAGARNAGLLAVRILASGTDDLASKLRADLLTFAQELNDVATKKGENLRHKVEEVFSPANASARSSR | failed
7 | MTSTTTSQQELFRFLEDRFACAQACTECARACALRASLVDPDGTENQELVRRRGIMCAEVCDATCRVLSEQNQVDEAAIRAQLEWCRQVCLESAHVFDDHPGAEESAQACRDCARACGEFLATLR | failed
8 | MTSVESTAHIEKRFIELKNIWFIIASLCYVAAIGFIIAYFVGGYSPYISIAVMWGCIGSLDMILGILRRKKEK | failed
9 | MTSVLEKRHAPKQRAEAQRALTGEDFVGDEAPGKDLPSRPRLDPAEFIKANMGLVPVLALPEIRFYTAHPGSGLRRLVDPEDDADADDDTPEPQPPYWAYAWAGGAVLARHILNHPKTVAGRRVLDLGAGSGIVGIAAAKAGASEVIAAEIDRNGVAAIGLNAAANGVEITIVHQDITMGSPPAVDLVLAGDVFYGREVALRVIPFLDRCLAAGIEVLVGDPRRHDLPLSRLRLLAEYQVPDFGDAKDAALKPSGVFRFEAETAPALAGAIKPSP | failed
10 | MTSVRGIAPLPSKKSSDRQKRLAMSTFERYLTLWVALCIVVGIGLGHLMPGAFQVIGAAEIAKVNLPVAALIWLMIIPMLVRIDFAALGRVREHWRGIGVTLFINWAVKPFSMAALAWLFVGYLFRPYLPADQINSYIAGLIILAAAPCTAMVFVWSNLTKGEPHFTLSQVALNDTIMVFAFAPIVGLLLGLSAITVPWDTLVLSVVLYIVVPVIIAQGLRRWALASGGEAQLQRLLGIFQPLSLVALLATLVLLFGFQGEQIIRQPLVIALLAVPILIQVYFNAGLAYLLNRLSGEQHCVAGPSALIGASNFFELAVAAAISLFGFESGAALATVVGVLIEVPVMLTVVAIVNRSKRWYEADQRAPVARTPG | failed
11 | MTSYTAAGLGELVQRDGALVNGRIYTDPEIFGLEMERIFSKVWVYVGHESQVANPGDYMTGYLAQQPIILTRDRAGQIHVLFNRCTHRGAKIVNRERGNERLLTCMYHGWAFGHDGELRGIPLKKDFPAEAVEPCKASLARPPRVDAYRGFIFASLNPDVEPLRDYLGAAASGIDEIVDRAPAGTIRLSAGCHRYIYEGNWKLQTDNLGDMYHPVACHSSTVDEDGKQFKRRPGDEGGRAAFLGADGEPIVIQTGVRGFLRGHSSEASLFGANDIVKEETRQRGGIIDEYRSLLIEQHGVEKTDEILKNRRHSMTLFPNLDVLMVQTSVRVVIPLAYNRTEVRIYPVHLDGAPDELNRQIIKFLNITHSAASFIQTDDLEAFKRQQEGLAARSPQWLIVARGQGSEIDEGNGAYFGPRASEVGQRMRHQYWRELMMAE | failed
12 | MTTDQHQEILRTEGLSKFFPGVKALDNVDFSLRRGEIMALLGENGAGKSTLIKALTGVYHADRGTIWLEGQAISPKNTAHAQQLGIGTVYQEVNLLPNMSVADNLFIGREPKRFGLLRRKEMEKRATELMASYGFSLDVREPLNRFSVAMQQIVAICRAIDLSAKVLILDEPTASLDTQEVELLFDLMRQLRDRGVSLIFVTHFLDQVYQVSDRITVLRNGSFVGCRETCELPQIELVKMMLGRELDTHALQRAGRTLLSDKPVAAFKNYGKKGTIAPFDLEVRPGEIVGLAGLLGSGRTETAEVIFGIKPADSGTALIKGKPQNLRSPHQASVLGIGFCPEDRKTDGIIAAASVRENIILALQAQRGWLRPISRKEQQEIAERFIRQLGIRTPSTEQPIEFLSGGNQQKVLLSRWLLTRPQFLILDEPTRGIDVGAHAEIIRLIETLCADGLALLVISSELEELVGYADRVIIMRDRKQVAEIPLAELSVPAIMNAIAA | failed
13 | MTTHITKAPAYWSRDAIWPGIVAVGPMLPGTLAFGMAFGALCAQKNFTLAEVEVMMATVYGGLSQFVAVQAWPDQLTPSTIAALALLTTTVNIRFFLMTASMRPWFGTLPAWQAYPPLLLVTDGGWLAAMRYREHGGANAWFYLGGALVLYLVWLVSAIPGFLLAEQLADPKKFGVDIAMPAFFAALLVPAWKGPRRAIPWLVSGIVALTVHWLIPGYWFIIAGALSGAITAGLMDEPPVATSHAGHSS | failed
14 | MTTLLRNETPRRCAFWRGARGILAFVLALALTIQGVAPAWAFLGLGGFTIKDEVELGRKFDVLIKSRMPLVEDPEVKVYVQDIVARLLEQAPPQPFDFKTNVLLHNSLNAFASPGGFIFVHTGLVMQMDHEAEVAGVLAHELAHATQRHIAGRIEKMQTTSILSMAGALAGAFLGGGSGKGAAMAGSIAAGQSAMLNYSRVDETEADEIGLRYLIAAGFRPEGMVGAFEKIRKKQWAMGTDIPSYLSTHPAVNERINSLSARIAALPADIRSRPNDDARFLRVRTICRARYGDPAVSERLFADAPAGDCLAQLGKAILFSRQNRVAEATAAFDKALQCSPKDQLIWREAGRFHYTKGDKGRAAAMLQRATLMNPDDYMALFFYARLLADSGQPQKSYQYFDEVLRRLPEDAEVHYYYGRVLGASGQPFKAYLHLAYSSLYSNDKHKTESFEEQARAQARTPEEMAELERFAATYQERKAFW | failed
15 | MTTLRTLMAVSLVLNLAACGFKLRGQVSELPFERVYITAPAGLTIGSDLERVISTHTRAKVVNKAEKSEAIIQIVHAIREKRILSLSESGRVREFELVYRVAARLLDAHNAELASLQEIRLTRILPFLDAQELAKAAEEEMLYKDMQKDAVQQILRQVSAVTSAGLEHHHHHH | not failed
16 | MTTTQPEAKDRISSLPVPDATQVPEGVRKLWAKAEANIGFVPNVFRAQAVNGEQFLAWWNYFNLLLNKEGYLTNAERELVAVVVSGVNRCLYCAVSHGAALREFLGDPQKADAVAVNWRHADLTEREQALAAYAEKLTRHPAEVTAADLEPLRAVGLDDHQIMELVQVIGMFNLTNRVSSALGFVPNPEYYRQAR | not failed
17 | MTTTTNKAWRTICKATELVKDSGISALIANSAGEDEQIAIFHIPNSEEKIYAVGNYDPIGQANVLYRGLVGCIDDEPVVSSPLYKQHYSLKTGRCLQEDQTIAVYDIRIENEQVQLFYLEHHHHHH | failed
18 | MTTVIVGAGRIGSSVIELAADANIGVTVIEQEHERAHEFKADENCHVIHDDATERETLHEAEVGNADAIIATTDQDTTNLMVLMLARELGCETLVSVVHAEENIPLFRQLGATIIENPQRLIAEYLFRGTHDPGIQGFMHVGDRDGGAEVFEISVADGAPIIGKTLEQADVAGFLPPSMVVVAVERDGEIIIPRGNTQIETDDLVTVFSKEGIINEVVEPFKPEAKRTGDSDTE | failed
